Assay results reported in US6395275 (Scripps Research, dated 2002).
Residue numbers refer to the chain shown, from its start. Read-outs that look alike come from different tables or passages of the source.

Assays:
[1] = molecular target: T1, recombinant gp120 of HIV-1 strain IIIb (HIV-1 strain IIIb, UniProt P04578 33-511); assay: SPR BIAcore, gp120 on chip
T1 construct: domain: gp120; also called IIIb-derived gp120; gp 120 (IIIB strain)

[2] = molecular target: gp120 glycoprotein of HIV-1 strain MN (HIV-1 strain MN, UniProt P05877 32-513, limits assumed); assay: cell-based or functional assay
[3] = molecular target: T1, recombinant gp120 of HIV-1 strain IIIb; assay: cell-based or functional assay
[4] = molecular target: T1, recombinant gp120 of HIV-1 strain IIIb; assay: SPR BIAcore, gp120 on chip; remark: listed apart in the source
Source text: In the assay, the gp120 glycoprotein, isolated from both MN (AgMed, Cambridge, Mass.) and IIIb (American Bio-Technologies) strains of HIV-1 were coated onto gold chips. […] As the mass of the gold chips increases due to the binding of the Fabs to the ligand, the refractive index of the chips increases indicating a coordinate increase in the increase of the mass. Measurements of the "on" rate are made in addition to the "off" rates, the latter of which occurs as the Fabs begin to dissociate from the ligand and the mass coordinately decreases, thereby allowing a measurement of the change of the refractive index. Briefly, the sensor chip was activated for immobilization with N-hydroxysuccinimide an N-ethyl-N'-(3-diethyl aminopropyl) carbodiimide. The proteins, MN-derived or IIIb-derived gp120, were coupled to the surface by injection of 50 ul of a 50 ug/ml sample. Excess activated esters were quenched with 15 ul ethanolamine, 1 M pH 8.5. Typically, 4000 resonance units were immobilized. Binding of Fab fragments to immobilized gp120 was studied by injection of Fab in a range of concentrations (0.5 to 10 ug/ml) at a flow rate of 5 ul/minute. The association was monitored as the increase in resonance units per unit time. Dissociation measurements were acquired following the end of the association phase but with a flow rate of 50 ul/minute. […]

[5] = molecular target: T1, recombinant gp120 of HIV-1 strain IIIb; assay: SPR BIAcore, gp120 on chip; remark: listed apart in the source
Source text: (§1) As the mass of the gold chips increases due to the binding of the Fabs to the ligand, the refractive index of the chips increases indicating a coordinate increase in the increase of the mass. Measurements of the "on" rate are made in addition to the "off" rates, the latter of which occurs as the Fabs begin to dissociate from the ligand and the mass coordinately decreases, thereby allowing a measurement of the change of the refractive index. Briefly, the sensor chip was activated for immobilization with N-hydroxysuccinimide an N-ethyl-N'-(3-diethyl aminopropyl) carbodiimide. The proteins, MN-derived or IIIb-derived gp120, were coupled to the surface by injection of 50 ul of a 50 ug/ml sample. Excess activated esters were quenched with 15 ul ethanolamine, 1 M pH 8.5. Typically, 4000 resonance units were immobilized. Binding of Fab fragments to immobilized gp120 was studied by injection of Fab in a range of concentrations (0.5 to 10 ug/ml) at a flow rate of 5 ul/minute. The association was monitored as the increase in resonance units per unit time. Dissociation measurements were acquired following the end of the association phase but with a flow rate of 50 ul/minute. The binding surface was regenerated with HCl, 1M NaCl, pH 3 and remained active for 20–40 measurements. […] Equilibrium association and dissociation constants were deduced from the rate constants.

[6] = molecular target: T1, recombinant gp120 of HIV-1 strain IIIb; assay: SPR BIAcore, gp120 on chip; remark: listed apart in the source
[7] = molecular target: T1, recombinant gp120 of HIV-1 strain IIIb; assay: SPR BIAcore, gp120 on chip; remark: listed apart in the source
Source text: as §1
(§2) The soluble composite Fabs were then analyzed for binding affinity to gp120 strain IIIB.

[8] = molecular target: T1, recombinant gp120 of HIV-1 strain IIIb; assay: calculated as ln2/Koff from SPR
Procedure: as §2
In addition, the half-life of the binding of the gp120-reactive Fabs to gp120 can be obtained by dividing the natural log ($\ln_2$) with the $Koff$ rate constant, thereby obtaining a further parameter of the nature of the interaction.

[9] = molecular target: T1, recombinant gp120 of HIV-1 strain IIIb; assay: SPR BIAcore, gp120 on chip (summary table)
[10] = molecular target: T1, recombinant gp120 of HIV-1 strain IIIb; assay: SPR BIAcore, gp120 on chip; remark: listed apart in the source
Procedure: Briefly, the sensor chip was activated for immobilization with N-hydroxysuccinimide an N-ethyl-N'-(3-diethyl aminopropyl) carbodiimide. The proteins, MN-derived or IIIb-derived gp120, were coupled to the surface by injection of 50 ul of a 50 ug/ml sample. Excess activated esters were quenched with 15 ul ethanolamine, 1 M pH 8.5. Typically, 4000 resonance units were immobilized. Binding of Fab fragments to immobilized gp120 was studied by injection of Fab in a range of concentrations (0.5 to 10 ug/ml) at a flow rate of 5 ul/minute. The association was monitored as the increase in resonance units per unit time. Dissociation measurements were acquired following the end of the association phase but with a flow rate of 50 ul/minute. The binding surface was regenerated with HCl, 1M NaCl, pH 3 and remained active for 20–40 measurements. […] Equilibrium association and dissociation constants were deduced from the rate constants.

B1: Fab 3b3 (Fab, V domains shown)
VH: LEQSGAEVKKPGASVKVSCQASGYRFSNFTVHWVRQAPGQRFEWMGWINPYNGNKEFSAKFQDRVTFTADTSANTAYMELRSLRSADTAVYYCARVGEWGWDDSPQDNYYMDVWGKGTTVIVSS
VL: ELTQSPGTLSLSPGERATFSCRSSHSIRSRRVAWYQHKPGQAPRLVIHGVSNRASGISDRFSGSGSGTDFTLTITRVEPEDFALYYCQVYGASSYTFGQGTKLERKR
[1]
  Ka: 1.3e+09 M⁻¹
[2]
  IC50 (M^-1), syncytium neutralization assay, HIV-1 MN on CEM-SS cells: 9.02e+09 M⁻¹
  Neutralization Titer (ng/ml), syncytium assay, HIV-1 MN: 5.5 ng/mL
[3]
  IC50 (M), syncytium neutralization assay, HIV-1 IIIb: 9.4e-10 M
  Neutralization titer (ng/ml), syncytium assay, HIV-1 IIIb: 47 ng/mL
[4]
  Kd: 0.77 nM

B2: Fab H4L3-3 (Fab, V domains shown)
VH: B1 VH
VL: ELTQSPGTLSLSPGERATFSCRSSHSIRSRRVAWYQHKPGQAPRLVIHGVSNRASGISDRFSGSGSGTDFTLTITRVEPEDFALYYCQVYGGSAYTFGQGTKLERK
[5]
  Fold Increase of Mutant Kd Compared to MT4 Kd: 1.9 fold
  Kd: 3.31 nM

B3: composite Fab H31/L42-1 (Fab, V domains shown)
VH: B1 VH with N28H, M45H, D102E, D103M, S104F, P105R, Q106Y
VL: B1 VL with S26Q, I27L, R28D, S29G, R30S, V89Q, A92W, S93P, S94F
notes: also called Fab of plasmid pPho-H31/L42-1 (ATCC 69691)
[6]
  koff: 1.75e-07 s⁻¹
  kon: 67300 M⁻¹ s⁻¹
[7]
  Fold Increase of Mutant Kd Compared to MT4 Kd: 2430 fold
  Ka: 3.85e+11 M⁻¹
  Kd: 0.00259 nM
[8]
  half-life of binding: 44.5 days
[9]
  Kd: 0.00259 nM

B4: Fab 3b1 (Fab, V domains shown)
VH: B1 VH with V31L, H32M, E98Q, G100N
VL: B1 VL
[2]
  IC50 (M^-1), syncytium neutralization assay, HIV-1 MN on CEM-SS cells: 5.42e+09 M⁻¹
  Neutralization Titer (ng/ml), syncytium assay, HIV-1 MN: 9.2 ng/mL
[3]
  IC50 (M), syncytium neutralization assay, HIV-1 IIIb: 4.4e-10 M
  Neutralization titer (ng/ml), syncytium assay, HIV-1 IIIb: 22 ng/mL

B5: Fab H4L3-4 (Fab, V domains shown)
VH: B1 VH
VL: B1 VL with V89K, A92G, S93G, S94T
[5]
  Fold Increase of Mutant Kd Compared to MT4 Kd: 25.7 fold
  Kd: 0.243 nM
[9]
  Kd: 0.243 nM

B6: Fab H4H1-3 (Fab, V domains shown)
VH: B1 VH with N28H, V31L, E98P, W99Y, G100S
VL: B1 VL
[10]
  Fold Increase of Mutant Kd Compared to MT4 Kd: 3.15 fold
  Kd: 2 nM

B7: Fab H4H1-1 (Fab, V domains shown)
VH: B1 VH with N28H, E98P, W99Y, G100S
VL: B1 VL
[10]
  Fold Increase of Mutant Kd Compared to MT4 Kd: 3.7 fold
  Kd: 1.7 nM

B8: Fab H4H1-5 (Fab, V domains shown)
VH: B1 VH with N28H, V31I, H32M, E98P, W99Y, G100S
VL: B1 VL
[10]
  Fold Increase of Mutant Kd Compared to MT4 Kd: 2.57 fold
  Kd: 2.45 nM

B9: Fab H4L3-2 (Fab, V domains shown)
VH: B1 VH
VL: B1 VL with V89Q, A92W, S93P, S94F
[5]
  Fold Increase of Mutant Kd Compared to MT4 Kd: 45.3 fold
  Kd: 0.138 nM
[9]
  Kd: 0.138 nM
